# Reference: patent US20220227863A1
# Target: human ILT3 on cells (human) (UniProt Q8NHJ6)
# Test: flow cytometry on THP1 cells, enumeration of the ILT3 antigen density with clone ZM4.1; unit not given
# human ILT3 on cells (human), sequence (Q8NHJ6 22-448 D223G/Q414R): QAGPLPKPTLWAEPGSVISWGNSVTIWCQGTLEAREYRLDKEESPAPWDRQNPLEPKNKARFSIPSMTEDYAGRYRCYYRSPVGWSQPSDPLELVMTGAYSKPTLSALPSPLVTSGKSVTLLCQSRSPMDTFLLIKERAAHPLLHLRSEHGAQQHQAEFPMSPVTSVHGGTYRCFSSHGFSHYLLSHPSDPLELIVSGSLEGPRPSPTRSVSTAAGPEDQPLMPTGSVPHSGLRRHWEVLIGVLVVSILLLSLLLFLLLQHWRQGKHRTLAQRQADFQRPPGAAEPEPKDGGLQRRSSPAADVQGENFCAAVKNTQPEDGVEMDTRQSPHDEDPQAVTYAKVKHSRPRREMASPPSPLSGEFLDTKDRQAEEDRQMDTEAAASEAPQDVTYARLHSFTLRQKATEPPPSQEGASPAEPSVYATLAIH
substance,measurement,value
"mouse anti-ILT3 monoclonal antibody, clone ZM4.1",Ag density,147000
